{"source": "the DeepSol protein solubility set"}
{"assay": "soluble on expression in E. coli; label from the status in PepcDB or PDB records"}
{"sequence": "MGSDKIHHHHHHMSADKYEVIIIGAGLAGLSAAYKLAKAGMEVVVVERGDYPGSKNLSGGVLYSRILDQLIPDFWEEAPIERYITNYLTTLMTPTDYVNIEYKDQELAKPPYNAVTVLRAKFDRWLAEKAEEAGAMIVTGVKVDKVLKEGGRITGITTGDEEMLADVVIAADGINSFIAQEAGLRGEIEPAHLAVGAKALIELPQQAIEERFRLEGNEGTAYAMLGDATHGVAGGGFFYTNRESLSIGVVMRLDDLVKEKVKPFEVLDDLLRHPLVAPLVKDGTMTEYGAHLTAEGGVHMVPSQLHTDGMLIVGDAAGFTINSGLVIRGMDLAIGSGMAAAEAVLEAKERGDYSAAALSSYQRKLDEGFIMKDLKLYAKAVDFMETDRLYKNYAPLANHLFGRIYNHDLSPKEHLWKSVLGSVQESGISWLDLARDGIKGVRAL", "soluble on expression in E. coli": "not soluble"}
{"sequence": "MKKPSKCQSPGDSSISAKENDAQSNRSRDSKVAPKSEGLATGLDETEWKSRLTTPEIVLKEIRTLEGVSYYHGMVARDLVESKLTRCGDYLIRATDNRIMEFEFILSFFNKKRIHSHLTIKCDVEAGKWALGLLSVNQFSSVVDLTNFYKTNPIGAGFFLKRAISKGKYMIAHDRIKYSPKDDLLGTGNFSDVFRGKIELENQMVNVALKTTKLLDDTMDPTKNVKANKIKKEMIQEAEVMSQLRHANVTSFFGIAVDRLPILLIIEFCNGGNLQGHLIKFGDRIGTNERFLYLHDASAGLNYIHAMSITHRDIAARNCLISVNGFVKLSDFGMGLKVRRNESAKKVAEDDDGKENKEPKLPVRWMSPELVDTPDAFSKMSDMWSLGILAYEIFTNATKPFFNLDDTDVMQTVKSGKHPPLPLSMGPDLIRLLKDVLVAAPTQRTTADKFYNELHVLCTQKGALSLNGLTINQIRGISRKRVEHWEGYIPQVVICDKNGNERDWGDAPQEMLANVVWRGKK", "soluble on expression in E. coli": "not soluble"}
{"sequence": "MTKIFIRDDNGGTEMSQDPFQEREAEKYANPIPSREFILEHLTKREKPASRDELAVELHIEGEEQLEGLRRRLRAMERDGQLVFTRRQCYALPERLDLVKGTVIGHRDGYGFLRVEGRKDDLYLSSEQMKTCIHGDQVLAQPLGADRKGRREARIVRVLVPKTSQIVGRYFTEAGVGFVVPDDSRLSFDILIPPDQIMGARMGFVVVVELTQRPTRRTKAVGKIVEVLGDNMGTGMAVDIALRTHEIPYIWPQAVEQQVAGLKEEVPEEAKAGRVDLRDLPLVTIDGEDARDFDDAVYCEKKRGGGWRLWVAIADVSYYVRPPTPLDREARNRGTSVYFPSQVIPMLPEVLSNGLCSLNPQVDRLCMVCEMTVSSKGRLTGYKFYEAVMSSHARLTYTKVWHILQGDQDLREQYAPLVKHLEELHNLYKVLDKAREERGGISFESEEAKFIFNAERRIERIEQTQRNDAHKLIEECMILANISAARFVEKAKEPALFRIHDKPSTEAITSFRSVLAELGLELPGGNKPEPRDYAELLESVADRPDAEMLQTMLLRSMKQAIYDPENRGHFGLALQSYAHFTSPIRRYPDLMLHRAIKYLLAKEQGHQGNTTETGGYHYSMEEMLQLGQHCSMAERRADEATRDVSDWLKCDFMLDQVGNVFKGVISSVTGFGFFVRLDDLFIDGLVHVSSLDNDYYRFDQVGQRLMGESSGQTYRLGDRVEVRVEAVNMDERKIDFSLISSERAPRNVGKTAREKAKKGDAGKKGGKRRQVGKKVNFEPDSAFRGEKKTKPKAAKKDARKAKKPSAKTQKIAAATKAKRAAKKKVAE", "soluble on expression in E. coli": "not soluble"}
{"sequence": "MGSDKIHHHHHHMMPIRRPFGRGPAVSLFTLGTMRAIGSAEQMYGVVKAAQAAGINHIETSPAYGPAESFLGTALRQLQQKQAEPSGGWVITSKLLPGLSLKEGQCELHNLLARLGRPKLENLAVHGLNRPEHLEWALSGDGAALLRWAEEEDLVVQVGFTSHGSFPLIKEALASGRFQFCSLHLHLLDPERIPLAREALASGMGVMAISPADKGGRLQDPSPTLVEDCSPLSPLQLAYRFLLAAKISTLSLGAAQPEDLTLAAQLANADGPLNQREQRALNQLRQQGERRLGENRCGQCKACLPCPKSVPIPDLLRLRNLAVGHNLQAFTEERYNLIGRAGHWWEGIDGSACERCGECLPRCPHHLPIPDLLADTHQRLAAAPRRRLWG", "soluble on expression in E. coli": "not soluble"}
{"sequence": "MAANSLPTNVASPVQTTTPTTDKRSIGFIDRQLGTNPAELPPLPYGYDALEKAIDAETMKLHHDKHHAAYVNNLNNALKKHPELQNSSVEALLRDLNSVPEDIRTTVRNNGGGHLNHTIFWQIMSPDGGGQPTGDIAQEINQTFGSFEEFKKQFNQAGGDRFGSGWVWLVRNPQGQLQVVSTPNQDNPIMEGSYPIMGNDVWEHAYYLRYQNRRPEYLNNWWNVVNWSEINRRTQASRQSNSHHHHHH", "soluble on expression in E. coli": "soluble"}
{"sequence": "MTAEHSWRLCLMALAFEDQLAGLDLGKVLRMCVVHDLGEAIHGDIPAVEQAAHPDKGEQERADLLQLTRHLDAPLRDRLLALWDEYERGESAEALAVKALDKLETL", "soluble on expression in E. coli": "soluble"}
{"sequence": "MRKSDREAFLSSVLGNEQPPAHLARTVIEEKLRNAIIDGSLPSGTALRQQELATLFGVSRMPVREALRQLEAQSLLRVETHKGAVVAPLITEDAVDAYALRILLESEALRLSIPLLDADDLAAAASYIEQLEVETDFGQIGRLNRMFHLSLYAKTHNKRLMRLVEEGLNEEERFLRFNLSSMGLGKLSQDDHWQLLRLAEQKAVEPCVEALQYHLNRGVQAVTQYLQSQKAGNVKPARTKKNTPA", "soluble on expression in E. coli": "soluble"}
{"sequence": "MAHHHHHHMKRWDEKLTLALRRGSGSDDVTPNPVSEALRNLEETMESIKRRLSQLEKCVERQRVAINEVRTNTSPFDDLLTKTNGDIQSIQQQLEYVVISLERERGIVTDHTEQLRLFVRESTRRDGGRSGLSDSDPSFLFLLATWLYRPVVDFANGCYVLLSPLIGTLQSLSLFNPDVQVRQTESGVYLNNAQPSEDLLSRLQKGQLDPVLTSKT", "soluble on expression in E. coli": "not soluble"}
{"sequence": "MQNIPPQVQAMLGQLDTYQQQLQLVIQQKQKVQADLNEAKKALEEIETLPDDAQIYKTVGTLIVKTTKEKAVQELKEKIETLEVRLNALNRQEQKINEKVKELTQKIQAALRPPTAG", "soluble on expression in E. coli": "soluble"}
{"sequence": "MLKLGVIGTGAISHHFIEAAHTSGEYQLVAIYSRKLETAATFASRYQNIQLFDQLEVFFKSSFDLVYIASPNSLHFAQAKAALSAGKHVILEKPAVSQPQEWFDLIQTAEKNNCFIFEAARNYHEKAFTTIKNFLADKQVLGADFNYAKYSSKMPDLLAGQTPNVFSDRFAGGALMDLGIYPLYAAVRLFGKANDATYHAQQLDNSIDLNGDGILFYPDYQVHIKAGKNITSNLPCEIYTTDGTLTLNTIEHIRSAIFTDHQGNQVQLPIQQAPHTMTEEVAAFAHMIQQPDLNLYQTWLYDAGSVHELLYTMRQTAGIRFEAEK", "soluble on expression in E. coli": "soluble"}
{"sequence": "MKILVYGINYSPELTGIGKYTGEMVEWLAAQGHEVRVITAPPYYPQWQVGENYSAWRYKREEGAATVWRCPLYVPKQPSTLKRLLHLGSFAVSSFFPLMAQRRWKPDRIIGVVPTLFCAPGMRLLAKLSGARTVLHIQDYEVDAMLGLGLAGKGKGGKVAQLATAFERSGLHNVDNVSTISRSMMNKAIEKGVAAENVIFFPNWSEIARFQHVADADVDALRNQLDLPDNKKIILYSGNIGEKQGLENVIEAADRLRDEPLIFAIVGQGGGKARLEKMAQQRGLRNMQFFPLQSYDALPALLKMGDCHLVVQKRGAADAVLPSKLTNILAVGGNAVITAEAYTELGQLCETFPGIAVCVEPESVEALVAGIRQALLLPKHNTVAREYAERTLDKENVLRQFINDIRG", "soluble on expression in E. coli": "soluble"}
{"sequence": "MSLNYLSGQAANPRGIIGEITTKIWSSYFEDLSKWTINNTEMAGVTKVLDVGYGGGSNVKNLVNLDQNLTIYGIDISKESYKTASALNKKAISDGKVKLTVADVADMDYREESFDLVYAIQTHMYWDNLQKGFEEIYRVMSQEGVLILSSEKDKIDYHMDEYKTTASLTALLKEIGFREVVEKEKGNWVLYTVKKEGHHHHHH", "soluble on expression in E. coli": "soluble"}
{"sequence": "MGSDKIHHHHHHMLRVWVGSKPVGVLDRSGRRGSTFVYDVKADDRDAVSLTMPKRTESWNSEFGLLPIFDMNLPEGALEGKIRTAFAKALGHFDDLDLLAVVGRSQIGRIRFTGMDEELVEDVPFRSIDDLLRARRAGDLYNDLLETYAVHSGVAGVQPKVLVRAREDDPSDGRQSLSVRGATHIVKMWDPDEYPELAANEFFCLMAAQQVGLEVPDFRLSEDGLALVVERFDLTDGSYSGYEDFCALNGVTSKDKYNGGYETKLFKRIKEFVSPENAVGSLEVAFRLFVINCGIRNGDAHLKNFGVVYKDAESPVRLAPVYDLITTRAYIKNDAMALTLDGSTAWPDRKKLDRLGVTRANLRPGRVAEIVEQTCDALSDVSGRVKAYFEESSFPEVGEKMLREWQAGVGSLSEGKTIHLMEALDATSARND", "soluble on expression in E. coli": "not soluble"}
{"sequence": "MGSDKIHHHHHHMSAPQAMKVLVLCGPESSGKSWLSGVIQAHFGGLVVGEYVRHFIDQQCRDTCYADIPAIARGQLAWEDRAREQAPPLLILDTHLLSNMLWSHALFGDCPTWLEEALLARRYDLHLLLSPQGVDWIADGQRCQPDLSDRQRFFDDSQAWLRRHNQPHQILDGNWPQRQLLALQSVAKLLNSDAPSCPTEC", "soluble on expression in E. coli": "not soluble"}
{"sequence": "MGSDKIHHHHHHMSHIIKIFPSNIEFSGREDESILDAALSAGIHLEHSCKAGDCGICESDLLAGEVVDSKGNIFGQGDKILTCCCKPKTALELNAHFFPELAGQTKKIVPCKVNSAVLVSGDVMTLKLRTPPTAKIGFLPGQYINLHYKGVTRSYSIANSDESNGIELHVRNVPNGQMSSLIFGELQENTLMRIEGPCGTFFIRESDRPIIFLAGGTGFAPVKSMVEHLIQGKCRREIYIYWGMQYSKDFYSALPQQWSEQHDNVHYIPVVSGDDAEWGGRKGFVHHAVMDDFDSLEFFDIYACGSPVMIDASKKDFMMKNLSVEHFYSDAFTASNNIEDNL", "soluble on expression in E. coli": "not soluble"}
{"sequence": "MQQERTVKVSKYLSKHLRHQPERIGLTPDEGGWVEIDALVAAAAAHGFPFTRQELDHVVATNDKRRFAVEGTRIRASQGHSIAVDLRLPVATPPPYLYHGTVARHLEAIRAEGLRPMNRHDVHLSPDRETATRVGARRGRPVVLPVDAATMHRDGHVFHVSANGVWLTQHVPSRYLRFPAPHLEHHHHHH", "soluble on expression in E. coli": "not soluble"}
{"sequence": "MDAAIKKIPYGMTDFERIILENYYYVDKTQYIAKVEKVTSFFFFVRPRRFGKSLFLNMLGLYYDINQKDKFEKIFGNLYIGKHPTPDRNKYLVLTLNFSSVAANMDRLEETFNTYCKIVMDGFAERNAHLLGKEAVEKLHELKTGDALLGSLCQSAQNKGQKIYLILDEYDNFANNILVDYGNKRYRSITHGSGFFRSFLKVVKDYSSSVIERIFLTGVSPVTMDDLTSGFNIADNYSSSPIFNNMMGFNEQEVRTLIDYYKSYRELPHTTDELITIMKPWYDNYCFAMKALKEPSMYNSDMVLYFMNHYMLNEDIPDNMLDANIRTDYNKLRHLIHVDKTFGENASVVQEIVEKGSTTGIIANSFPAEDIIKPENFKSLLYYYGMLTISGMEMGEPILSVPNWAVREQLYGYMADIYKDSADLYLETDKLVDRMKRMAYKGEWENCFTYIADRLNAQSSVRDFIEGEAYVKTFILAYLGLTHYYIARPEYESNKGYADIFLQPRLLQLPDMVYSYCIEVKYAKRDASDTEIEKLLSNAKIQLKQYAASEWIHQDKGTTELKSIALVFQGWKLVRVEEV", "soluble on expression in E. coli": "not soluble"}
{"sequence": "MSLGYTTAKKEVSVVIEDGINEIINKTERFVSLKLESDISLASSIVDSISLRISDEQYINDIINGNAIKKAFLSTGFGFDSNGKVIENDPNWEPEDDYDPRSRGWYQEAKKNKRIFITEPYLDTEGKNFLVSISSPVADTMNNFIGAMYFDVDLSRIQKNVDDINLFEAGYVFITSNTGKVIIHSNTDELGKNVKDIYNGFRLDKGKVVLSVNGVNKWLYTSPILGGDWFIIAVIDESIAMQSINKMKYEEGHHHHHH", "soluble on expression in E. coli": "soluble"}
{"sequence": "MGSDKIHHHHHHMNLGNPIAKGNTAEIYLYDNKIMKLFKDYLPNTESMNEAKKQKYAYSCGLPVPNVFEVTKIQNRQAIIMEYVKGDSIGDLLLNNLNEAEYYINICVNEQKKIHAIHVNTDEMEAMGERLERQIKSVHKLDEKQKESILNKLHSIKLDPRLCHGDFHPFNLILSEKNVSIIDWIDASSGDIRADLFRTYLLYSQSSVELAEKYLHIYCRNTGLSRDEIFQWAPIIIAARISENVTATNIEYLNDLVAQYCN", "soluble on expression in E. coli": "not soluble"}
